Assay results published in publication PMC4747207 (2015).

Target: GST-Skp1 (Homo sapiens (Human), UniProt P63208)
Assay: GST pull-down, Western blot

Sequence of GST-Skp1 (P63208 whole entry): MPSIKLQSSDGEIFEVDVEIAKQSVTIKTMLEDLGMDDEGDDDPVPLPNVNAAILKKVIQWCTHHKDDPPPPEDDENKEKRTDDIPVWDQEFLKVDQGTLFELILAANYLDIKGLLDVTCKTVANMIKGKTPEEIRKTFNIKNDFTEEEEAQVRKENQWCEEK

binding result: no binding
B1: Recombinant human MAGE-C2 protein (protein)
chain: MPPVPGVPFRNVDNDSPTSVELEDWVDAQHPTDEEEEEASSASSTLYLVFSPSSFSTSSSLILGGPEEEEVPSGVIPNLTESIPSSPPQGPPQGPSQSPLSSCCSSFSWSSFSEESSSQKGEDTGTCQGLPDSESSFTYTLDEKVAELVEFLLLKYEAEEPVTEAEMLMIVIKYKDYFPVILKRAREFMELLFGLALIEVGPDHFCVFANTVGLTDEGSDDEGMPENSLLIIILSVIFIKGNCASEEVIWEVLNAVGVYAGREHFVYGEPRELLTKVWVQGHYLEYREVPHSSPPYYEFLWGPRAHSESIKKKVLEFLAKLNNTVPSSFPSWYKDALKDVEERVQATIDTADDATVMASESLSVMSSNVSFSE
